How the values were obtained:
[1] = test system: MOLT-4 (T leukemia) cells; assay: Survival of MOLT-4 tumor-bearing mice after doxorubicin and Y1; assay type: in vivo; settings: MOLT-4 tumor-bearing SCID mice; for survival of tumor-bearing mice (FIG. 1): 2 mg Dox/kg i.v. 1x/wk and/or 0.1 mg Y1 scFv/mouse i.v. 3x/wk, relative to control
Method: The present example examines the interaction between chemotherapy treatment and Y1 in the MOLT-4 tumor-bearing mice.
Initially, SCID mice (Jackson) were pretreated with 100 mg/kg CTX (Cytoxan-cyclophosphamid for injection, Mead Johnson). Five days after CTX injection, MOLT-4 (T leukemia) cells were inoculated intravenously (i.v.) through the tail vein with 2×10^7 cells. Mice were randomly divided into 5 treatment groups (13 per group), and they were treated, beginning 5 days after cell inoculation, as indicated in the table below. Tumor-bearing mice were treated for two weeks with sub-optimal dose of doxorubicin (Dox), in combination with Y1 given either concomitantly or after the Dox course of treatment. The response to the therapies was monitored as survival. As described above, the experimental groups were as follows: […]

[2] = test system: primary leukemia cells derived from either AML or multiple myeloma (MM) patients; assay: Affinity of Y1 to primary leukemia cells; assay type: binding
leukemic cells = assay: Binding to leukemic cells
platelets [3] = assay: Platelet aggregation; assay type: cell-based
platelets [4] = assay: Binding to platelets

Molecule | survival of tumor-bearing mice (FIG. 1) [1] | mean survival time (MST) ([1]; sub-optimal dose 2 mg Dox/kg i.v., 2 doses, 1x/wk, beginning day 5 post inoculation, control 39.08±0.8 days) | affinity to primary leukemia cells relative to glycocalicin, fibrinogen-gamma prime, complement compound 4 and PSGL-1 epitopes [2] | affinity of binding to leukemic cells relative to Y1 (leukemic cells) | effect on platelet aggregation (platelets [3]) | binding to platelets (platelets [4])
COc1cccc2c1C(=O)c1c(O)c3c(c(O)c1C2=O)C[C@@](O)(C(=O)CO)C[C@@H]3O[C@H]1C[C@H](N)[C@H](O)[C@H](C)O1 [Dox, doxorubicin] | negative effect | 33.5 ± 1.68 days | – | – | – | –
Y1: human scFv antibody fragment of SEQ ID NO: 1, selected from a phage library on fixed human platelets (protein, listed as Homo sapiens) scFv: MKYLLPTAAAGLLLLAAQPAMAEVQLVESGGGVVRPGGSLRLSCAASGFSFDDYGMSWVRQAPGKGLEWVSGINWNGGSTGYADSVKGRFTISRDNAKNSLYLQMNSLRAEDTAVYYCARMRAPVIWGQGTLVTVSRGGGGSGGGGSGGGGSSELTQDPAVSVALGQTVRITCQGDSLRSYYASWYQQKPGQAPVLVIYGKNNRPSGIPDRFSGSSSGNTASLTITGAQAEDEADYYCNSRDSSGNHVVFGGGTKLTVLGAAAEQKLISEEDLNGAA | dramatic effect | – | several magnitudes higher | – | – | –
L32: scFv antibody fragment of SEQ ID NO:3, screened against a leukemia cell (protein, listed as Homo sapiens) scFv: MKYLLPTAAAGLLLLAAQPAMAEVQLVESGGGVVRPGGSLRLSCAASGFTFDLNPKVKHMWVRQAPGKGLEWVSGINWNGGSTGYADSVKGRFTISRDNAKNSLYLQMNSERAEDTAVYYCARMRAPVIWGQGTLVTVSRGGGGSGGGGSGGGGSSELTQDPAVSVALGQTVRITCQGDSLRSYYASWYQQKPGQAPVLVIYGKNNRPSGIPDRFSGSSSGNTASLTITGAQAEDEADYYCNSRDSSGNHVVFGGGTKLTVLGAAAEQKLISEEDLNGAA | – | – | – | approximately five times greater affinity than Y1 | does not affect platelet aggregation | does not bind platelets

From patent publication US20040202665A1, “Compositions and methods for therapeutic treatment” (priority 2002, published 2004)
